B1: AMSH (protein)
chain: MSDHGDVSLPPEDRVRALSQLGSAVEVNEDIPPRRYFRSGVEIIRMASIYSEEGNIEHAFILYNKYITLFIEKLPKHRDYKSAVIPEKKDTVKKLKEIAFPKAEELKAELLKRYTKEYTEYNEEKKKEAEELARNMAIQQELEKEKQRVAQQKQQQLEQEQFHAFEEMIRNQELEKERLKIVQEFGKVDPGLGGPLVPDLEKPSLDVFPTLTVSSIQPSDCHTTVRPAKPPVVDRSLKPGALSNSESIPTIDGLRHVVVPGRLCPQFLQLASANTARGVETCGILCGKLMRNEFTITHVLIPKQSAGSDYCNTENEEELFLIQDQQGLITLGWIHTHPTQTAFLSSVDLHTHCSYQMMLPESVAIVCSPKFQETGFFKLTDHGLEEISSCRQKGFHPHSKDPPLFCSCSHVTVVDRAVTITDLR
B2: A20-OTU (protein)
chain: LVALKTNGDGNCLMHATSQYMWGVQDTDLVLRKALFSTLKETDTRNFKFRWQLESLKSQEFVETGLCYDTRNWNDEWDNLIKMASTDTPMARSGLQYNSLEEIHIFVLCNILRRPIIVISDKMLRSLESGSNFAPLKVGGIYLPLHWPAQECYRYPIVLGYDSHHFVPLVTL
B3: IsoT (protein)
chain: MAELSEEALLSVLPTIRVPKAGDRVHKDECAFSFDTPESEGGLYICMNTFLGFGKQYVERHFNKTGQRVYLHLRRTRRPKEEDPATGTGDPPRKKPTRLAIGVEGGFDLSEEKFELDEDVKIVILPDYLEIARDGLGGLPDIVRDRVTSAVEALLSADSASRKQEVQAWDGEVRQVSKHAFSLKQLDNPARIPPCGWKCSKCDMRENLWLNLTDGSILCGRRYFDGSGGNNHAVEHYRETGYPLAVKLGTITPDGADVYSYDEDDMVLDPSLAEHLSHFGIDMLKMQKTDKTMTELEIDMNQRIGEWELIQESGVPLKPLFGPGYTGIRNLGNSCYLNSVVQVLFSIPDFQRKYVDKLEKIFQNAPTDPTQDFSTQVAKLGHGLLSGEYSKPVPESGDGERVPEQKEVQDGIAPRMFKALIGKGHPEFSTNRQQDAQEFFLHLINMVERNCRSSENPNEVFRFLVEEKIKCLATEKVKYTQRVDYIMQLPVPMDAALNKEELLEYEEKKRQAEEEKMALPELVRAQVPFSSCLEAYGAPEQVDDFWSTALQAKSVAVKTTRFASFPDYLVIQIKKFTFGLDWVPKKLDVSIEMPEELDISQLRGTGLQPGEEELPDIAPPLVTPDEPKGSLGFYGNEDEDSFCSPHFSSPTSPMLDESVIIQLVEMGFPMDACRKAVYYTGNSGAEAAMNWVMSHMDDPDFANPLILPGSSGPGSTSAAADPPPEDCVTTIVSMGFSRDQALKALRATNNSLERAVDWIFSHIDDLDAEAAMDISEGRSAADSISESVPVGPKVRDGPGKYQLFAFISHMGTSTMCGHYVCHIKKEGRWVIYNDQKVCASEKPPKDLGYIYFYQRVAS

Columns and labels:
[1] = target: K48C, K63C-linked branched Ub trimer
[2] = target: K6C, K48C-linked branched Ub trimer
[3] = target: K11C, K48C-linked branched Ub trimer

Protein | DUB-catalyzed hydrolysis of Ub trimer, SDS-PAGE and western blot [1] | DUB-catalyzed hydrolysis of Ub trimer, SDS-PAGE and western blot [2] | DUB-catalyzed hydrolysis of Ub trimer, SDS-PAGE and western blot [3]
B1 | the presence of a Ub appendage at position 48 does not influence cleavage of the K63C-linkage as indicated by the formation of Ub2 and Ub upon hydrolysis of the K48C, K63C-linked trimer | – | –
B2 | A20-OTU cleaved the K48C-linkage in K11C, K48C and K48C, K63C-linked trimers | the same linkage remained intact in the K6C, K48C-linked trimer | A20-OTU cleaved the K48C-linkage in K11C, K48C and K48C, K63C-linked trimers
B3 | IsoT efficiently processed all three trimers as evidenced by Western blot analysis | IsoT efficiently processed all three trimers as evidenced by Western blot analysis | IsoT efficiently processed all three trimers as evidenced by Western blot analysis

Reference: US20130281659
